Results on eleven variants are retold here after IntAct's records for PubMed 31515488.

The labels stand for the following.
B1: Late cornified envelope protein 1B (Homo sapiens), Q5T7P3 (parent)
chain: MSCQQNQQQCQPPPKCIPKCPPKCLTPRCPPKCPPKCPPVSSCCSVSSGGCCGSSSGGSCGSSSGGCCSSGGGGCCLSHHRRRRSHCHRPQSSGCCSQPSGGSSCCGGGSGQHSGGCC
partner: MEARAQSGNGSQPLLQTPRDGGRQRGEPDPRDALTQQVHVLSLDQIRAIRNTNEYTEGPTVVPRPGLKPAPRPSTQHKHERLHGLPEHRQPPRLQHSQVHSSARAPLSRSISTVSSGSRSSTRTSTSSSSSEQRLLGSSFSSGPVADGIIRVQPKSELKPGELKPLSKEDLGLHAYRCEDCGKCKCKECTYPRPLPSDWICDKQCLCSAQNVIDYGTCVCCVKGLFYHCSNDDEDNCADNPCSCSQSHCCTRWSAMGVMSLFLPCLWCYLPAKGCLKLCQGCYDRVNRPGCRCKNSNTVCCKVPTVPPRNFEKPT
B2: Tuftelin-interacting protein 11 (Homo sapiens), Q9UBB9 (parent)
chain: MSLSHLYRDGEGRIDDDDDERENFEITDWDLQNEFNPNRQRHWQTKEEATYGVWAERDSDDERPSFGGKRARDYSAPVNFISAGLKKGAAEEAELEDSDDEEKPVKQDDFPKDFGPRKLKTGGNFKPSQKGFAGGTKSFMDFGSWERHTKGIGQKLLQKMGYVPGRGLGKNAQGIINPIEAKQRKGKGAVGAYGSERTTQSMQDFPVVDSEEEAEEEFQKELSQWRKDPSGSKKKPKYSYKTVEELKAKGRISKKLTAPQKELSQVKVIDMTGREQKVYYSYSQISHKHNVPDDGLPLQSQQLPQSGKEAKAPGFALPELEHNLQLLIDLTEQEIIQNDRQLQYERDMVVNLFHELEKMTEVLDHEERVISNLSKVLEMVEECERRMQPDCSNPLTLDECARIFETLQDKYYEEYRMSDRVDLAVAIVYPLMKEYFKEWDPLKDCTYGTEIISKWKSLLENDQLLSHGGQDLSADAFHRLIWEVWMPFVRNIVTQWQPRNCDPMVDFLDSWVHIIPVWILDNILDQLIFPKLQKEVENWNPLTDTVPIHSWIHPWLPLMQARLEPLYSPIRSKLSSALQKWHPSDSSAKLILQPWKDVFTPGSWEAFMVKNIVPKLGMCLGELVINPHQQHMDAFYWVIDWEGMISVSSLVGLLEKHFFPKWLQVLCSWLSNSPNYEEITKWYLGWKSMFSDQVLAHPSVKDKFNEALDIMNRAVSSNVGAYMQPGARENIAYLTHTERRKDFQYEAMQERREAENMAQRGIGVAASSVPMNFKDLIETKAEEHNIVFMPVIGKRHEGKQLYTFGRIVIYIDRGVVFVQGEKTWVPTSLQSLIDMAK
partner: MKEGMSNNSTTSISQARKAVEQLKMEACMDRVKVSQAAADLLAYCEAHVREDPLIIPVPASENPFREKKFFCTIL
B3: Dynein light chain 2, cytoplasmic (Homo sapiens), Q96FJ2 (parent)
chain: MSDRKAVIKNADMSEDMQQDAVDCATQAMEKYNIEKDIAAYIKKEFDKKYNPTWHCIVGRNFGSYVTHETKHFIYFYLGQVAILLFKSG
partner: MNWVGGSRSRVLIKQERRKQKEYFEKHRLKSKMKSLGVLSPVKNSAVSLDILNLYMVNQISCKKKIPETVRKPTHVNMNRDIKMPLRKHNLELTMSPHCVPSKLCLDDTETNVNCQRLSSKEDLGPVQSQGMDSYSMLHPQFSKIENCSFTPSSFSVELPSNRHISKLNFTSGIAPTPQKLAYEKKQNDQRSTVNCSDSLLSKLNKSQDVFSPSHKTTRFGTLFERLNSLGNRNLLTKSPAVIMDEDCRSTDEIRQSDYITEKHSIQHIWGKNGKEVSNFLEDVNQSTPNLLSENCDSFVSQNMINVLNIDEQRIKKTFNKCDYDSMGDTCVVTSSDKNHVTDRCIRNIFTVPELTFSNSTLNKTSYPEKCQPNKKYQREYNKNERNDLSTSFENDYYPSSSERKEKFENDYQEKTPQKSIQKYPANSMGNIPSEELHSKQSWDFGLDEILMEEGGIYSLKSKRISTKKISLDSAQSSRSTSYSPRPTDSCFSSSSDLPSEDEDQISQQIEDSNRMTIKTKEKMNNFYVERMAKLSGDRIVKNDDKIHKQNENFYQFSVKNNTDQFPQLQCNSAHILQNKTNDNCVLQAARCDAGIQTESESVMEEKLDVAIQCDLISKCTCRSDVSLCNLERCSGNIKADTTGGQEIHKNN
B4: Serine/threonine-protein kinase PAK 5 (Homo sapiens), Q9P286 (parent)
chain: MFGKKKKKIEISGPSNFEHRVHTGFDPQEQKFTGLPQQWHSLLADTANRPKPMVDPSCITPIQLAPMKTIVRGNKPCKETSINGLLEDFDNISVTRSNSLRKESPPTPDQGASSHGPGHAEENGFITFSQYSSESDTTADYTTEKYREKSLYGDDLDPYYRGSHAAKQNGHVMKMKHGEAYYSEVKPLKSDFARFSADYHSHLDSLSKPSEYSDLKWEYQRASSSSPLDYSFQFTPSRTAGTSGCSKESLAYSESEWGPSLDDYDRRPKSSYLNQTSPQPTMRQRSRSGSGLQEPMMPFGASAFKTHPQGHSYNSYTYPRLSEPTMCIPKVDYDRAQMVLSPPLSGSDTYPRGPAKLPQSQSKSGYSSSSHQYPSGYHKATLYHHPSLQSSSQYISTASYLSSLSLSSSTYPPPSWGSSSDQQPSRVSHEQFRAALQLVVSPGDPREYLANFIKIGEGSTGIVCIATEKHTGKQVAVKKMDLRKQQRRELLFNEVVIMRDYHHDNVVDMYSSYLVGDELWVVMEFLEGGALTDIVTHTRMNEEQIATVCLSVLRALSYLHNQGVIHRDIKSDSILLTSDGRIKLSDFGFCAQVSKEVPKRKSLVGTPYWMAPEVISRLPYGTEVDIWSLGIMVIEMIDGEPPYFNEPPLQAMRRIRDSLPPRVKDLHKVSSVLRGFLDLMLVREPSQRATAQELLGHPFLKLAGPPSCIVPLMRQYRHH
partner: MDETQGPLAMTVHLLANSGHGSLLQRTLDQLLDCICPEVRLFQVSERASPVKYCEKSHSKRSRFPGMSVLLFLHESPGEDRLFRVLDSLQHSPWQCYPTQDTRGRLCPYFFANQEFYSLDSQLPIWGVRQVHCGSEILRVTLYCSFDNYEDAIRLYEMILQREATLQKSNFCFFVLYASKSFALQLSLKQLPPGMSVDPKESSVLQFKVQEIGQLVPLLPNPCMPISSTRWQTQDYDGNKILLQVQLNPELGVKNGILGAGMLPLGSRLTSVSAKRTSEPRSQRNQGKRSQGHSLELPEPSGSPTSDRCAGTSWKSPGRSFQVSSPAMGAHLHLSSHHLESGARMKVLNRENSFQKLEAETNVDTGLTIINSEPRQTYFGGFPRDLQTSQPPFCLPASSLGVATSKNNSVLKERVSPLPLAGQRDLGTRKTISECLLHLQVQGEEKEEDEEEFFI
B5: Phosphoserine phosphatase (Homo sapiens), P78330 (parent)
chain: MVSHSELRKLFYSADAVCFDVDSTVIREEGIDELAKICGVEDAVSEMTRRAMGGAVPFKAALTERLALIQPSREQVQRLIAEQPPHLTPGIRELVSRLQERNVQVFLISGGFRSIVEHVASKLNIPATNVFANRLKFYFNGEYAGFDETQPTAESGGKGKVIKLLKEKFHFKKIIMIGDGATDMEACPPADAFIGFGGNVIRQQVKDNAKWYITDFVELLGELEE
partner: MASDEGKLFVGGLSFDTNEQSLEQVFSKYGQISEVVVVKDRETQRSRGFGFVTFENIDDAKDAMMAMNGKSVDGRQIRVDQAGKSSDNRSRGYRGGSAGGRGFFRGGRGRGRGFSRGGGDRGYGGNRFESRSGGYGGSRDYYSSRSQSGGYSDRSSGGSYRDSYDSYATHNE
B6: Myogenin (Homo sapiens), P15173 (parent)
chain: MELYETSPYFYQEPRFYDGENYLPVHLQGFEPPGYERTELTLSPEAPGPLEDKGLGTPEHCPGQCLPWACKVCKRKSVSVDRRRAATLREKRRLKKVNEAFEALKRSTLLNPNQRLPKVEILRSAIQYIERLQALLSSLNQEERDLRYRGGGGPQPGVPSECSSHSASCSPEWGSALEFSANPGDHLLTADPTDAHNLHSLTSIVDSITVEDVSVAFPDETMPN
partner: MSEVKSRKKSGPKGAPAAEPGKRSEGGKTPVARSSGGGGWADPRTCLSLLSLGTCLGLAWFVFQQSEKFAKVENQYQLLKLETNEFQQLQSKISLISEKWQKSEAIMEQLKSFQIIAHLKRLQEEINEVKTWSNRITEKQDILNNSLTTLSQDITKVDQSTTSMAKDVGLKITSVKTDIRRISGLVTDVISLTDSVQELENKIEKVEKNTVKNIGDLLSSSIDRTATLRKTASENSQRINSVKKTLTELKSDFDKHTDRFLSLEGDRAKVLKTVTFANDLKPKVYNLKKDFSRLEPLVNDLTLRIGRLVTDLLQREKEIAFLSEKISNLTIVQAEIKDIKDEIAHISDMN
B7: Probable RNA-binding protein EIF1AD (Homo sapiens), Q8N9N8 (parent)
chain: MSQATKRKHVVKEVLGEHIVPSDQQQIVRVLRTPGNNLHEVETAQGQRFLVSMPSKYRKNIWIKRGDFLIVDPIEEGEKVKAEISFVLCKDHVRSLQKEGFWPEAFSEVAEKHNNRNRQTQPELPAEPQLSGEESSSEDDSDLFVNTNRRQYHESEEESEEEEAA
partner: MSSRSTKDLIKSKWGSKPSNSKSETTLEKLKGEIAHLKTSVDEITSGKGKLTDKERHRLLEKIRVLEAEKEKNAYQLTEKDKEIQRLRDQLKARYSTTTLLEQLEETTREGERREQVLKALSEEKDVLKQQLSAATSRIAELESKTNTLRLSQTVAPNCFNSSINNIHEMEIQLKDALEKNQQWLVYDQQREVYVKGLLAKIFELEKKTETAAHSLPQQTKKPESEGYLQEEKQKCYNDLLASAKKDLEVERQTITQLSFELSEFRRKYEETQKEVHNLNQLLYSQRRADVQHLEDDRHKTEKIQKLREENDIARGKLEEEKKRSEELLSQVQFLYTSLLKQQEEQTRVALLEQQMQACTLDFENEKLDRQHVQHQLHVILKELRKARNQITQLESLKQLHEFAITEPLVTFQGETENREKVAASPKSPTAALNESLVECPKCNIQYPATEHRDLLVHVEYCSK

Variants of B1 are the subject of one test. Particulars: with spy2_human SPRY2, O43597.
As for G108E, the “effect of a mutation on the interaction” value is given as “with no effect”.
As to H113Q, the “effect of a mutation on the interaction” value is recorded as “with no effect”.
For the variant C51Y, the “effect of a mutation on the interaction” value is recorded as “with no effect”.

A further test covers variants of B2. Particulars: with gbg4_human GNG4, P50150.
On to S688L, for which the “effect of a mutation on the interaction” value was “with no effect”.
Turning to R8Q, the “effect of a mutation on the interaction” value was “with no effect”.

In a further test the parent is B3. The conditions noted are these: with rdic1_human REDIC1, Q86WS4.
As to E30D, the “effect of a mutation on the interaction” value is “with no effect”.

The variants in another test derive from B4. Particulars: with FAM124B.
For the variant R335P, the “effect of a mutation on the interaction” value is given as “with no effect”.

The variants in a further test derive from B5. Particulars: with cirbp_human CIRBP.
On to T149M, for which the “effect of a mutation on the interaction” value is recorded as “with no effect”.
Take T152I: the “effect of a mutation on the interaction” value is on record as “with no effect”.

Another test covers variants of B6. The conditions noted are these: with ikip_human IKBIP.
Consider A181T, for which the “effect of a mutation on the interaction” value was “disrupting interaction strength”.

A further test covers variants of B7. The conditions noted are these: with cep55_human CEP55, Q53EZ4.
As for R48C, the “effect of a mutation on the interaction” value is “with no effect”.
